Measured values reported in patent publication US12460006B2, “Antibodies against integrin alpha 11 beta 1” (Momenta Pharmaceuticals, Inc., priority 2019, dated 2025).

T1: α11β1 expressed on the surface of CHO-K1 cells (Homo sapiens, UniProt Q9UKX5)
T1 construct: expressed in transfected cells; host or cells: CHO-K1
T1 sequence (Q9UKX5 23-1188): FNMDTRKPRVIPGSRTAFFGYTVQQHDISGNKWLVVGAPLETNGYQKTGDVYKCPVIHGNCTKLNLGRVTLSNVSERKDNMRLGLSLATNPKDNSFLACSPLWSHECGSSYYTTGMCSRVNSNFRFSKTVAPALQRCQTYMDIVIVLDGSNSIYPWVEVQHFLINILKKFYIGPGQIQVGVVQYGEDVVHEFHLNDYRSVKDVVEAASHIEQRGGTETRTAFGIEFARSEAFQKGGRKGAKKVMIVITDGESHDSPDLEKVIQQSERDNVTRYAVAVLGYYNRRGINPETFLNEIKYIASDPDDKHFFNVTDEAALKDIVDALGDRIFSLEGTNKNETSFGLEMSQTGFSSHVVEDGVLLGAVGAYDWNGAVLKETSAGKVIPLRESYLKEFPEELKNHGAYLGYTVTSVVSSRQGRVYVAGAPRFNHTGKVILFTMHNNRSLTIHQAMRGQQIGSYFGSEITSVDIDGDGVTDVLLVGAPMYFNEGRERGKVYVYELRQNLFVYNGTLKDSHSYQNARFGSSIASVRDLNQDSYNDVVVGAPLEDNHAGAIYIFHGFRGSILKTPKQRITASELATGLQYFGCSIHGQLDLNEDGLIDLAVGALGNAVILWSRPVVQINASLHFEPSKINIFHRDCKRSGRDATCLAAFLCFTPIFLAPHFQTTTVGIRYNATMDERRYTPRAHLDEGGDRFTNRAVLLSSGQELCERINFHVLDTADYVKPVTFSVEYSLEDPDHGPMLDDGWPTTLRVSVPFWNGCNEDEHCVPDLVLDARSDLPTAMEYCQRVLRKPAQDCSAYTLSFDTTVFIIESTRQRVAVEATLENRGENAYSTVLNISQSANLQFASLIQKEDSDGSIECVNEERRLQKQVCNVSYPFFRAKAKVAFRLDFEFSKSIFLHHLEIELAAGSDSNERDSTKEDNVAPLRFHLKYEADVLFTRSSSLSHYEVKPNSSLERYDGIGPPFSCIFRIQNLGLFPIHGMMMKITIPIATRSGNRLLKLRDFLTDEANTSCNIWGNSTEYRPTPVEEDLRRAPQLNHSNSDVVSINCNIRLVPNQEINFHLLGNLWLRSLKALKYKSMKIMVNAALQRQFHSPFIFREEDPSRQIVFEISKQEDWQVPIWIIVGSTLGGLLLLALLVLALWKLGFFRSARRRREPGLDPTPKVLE

B1: 16E10: rabbit anti-α11β1 mAb; heavy chain SEQ ID NO: 161, light chain SEQ ID NO: 162 (antibody)
heavy: METGLRWLLLVAVLKGVQCQSLEESGGDLVKPGASLTLTCRVSGFSFSSSYYMCWVRQAPGKGLEWIACIGTTRGSTYYATWAKGRFTISKISSTTVTLQMTSLTDADTATYFCARDATGYRINTIGLYFNLWGPGTLVTVSSGQPKAPSVFPLAPCCGDTPSSTVTLGCLVKGYLPEPVTVTWNSGTLTNGVRTFPSVRQSSGLYSLSSVVSVTSSSQPVTCNVAHPATNTKVDKTVAPSTCSKPMCPPPELPGGPSVFIFPPKPKDTLMISRTPEVTCVVVDVSQDDPEVQFTWYINNEQVRTARPPLREQQFNSTIRVVSTLPIAHQDWLRGKEFKCKVHNKALPAPIEKTISKARGQPLEPKVYTMGPPREELSSRSVSLTCMINGFYPSDISVEWEKNGKAEDNYKTTPTVLDSDGSYFLYSKLSVPTSEWQRGDVFTCSVMHEALHNHYTQKSISRSPGK
light: MDTRAPTQLLGLLLLWLPGARCAFELTQTPSSVEAAVGGTPTIKCQASQTIYSYLSWYQQKPGQPPKLLIYEASKLASGVPSRFSGSGSGTDYTLTISDLECADAATYYCQSYHGTASTEYNTFGGGTEVVVRGDPVAPTVLIFPPAADQVATGTVTIVCVANKYFPDVTVTWEVDGTTQTTGIENSKTPQNSADCTYNLSSTLTLTSTQYNSHKEYTCKVTQGTTSVVQSFNRGDC
B2: 40G10H11: rat anti-α11β1 mAb; VH SEQ ID NO: 157, VL SEQ ID NO: 158 (antibody, V domains shown)
VH: MDIRLSLGFLVLFIKGDQCAVQLVESGGGLVQPGRSLKLSCAASRITFTDYYMAWVRQAPTKGLEWVATISSDGGDTFYRDSVKGRFTISRDNAKSTLYLQMVSLRSEDTATYYCSTDRGAQFGYWGQGTLVTVSS
VL: MAPVQLLGLLLIWLPAMRCDIQMTQSPSFLSASVGDRVSINCKASQNVHENLNWYQQKLGEAPKRLIYNTNNLQTGIPSRFSGSGSGADYTLTISSLQPEDFATYFCLQHNAFPYTFGPGTKLELK
B3: 16G7: rabbit anti-α11β1 mAb; heavy chain SEQ ID NO: 159, light chain SEQ ID NO: 160 (antibody)
heavy: METGLRWLLLVAVFKGVQCQEQLVESGGDLVKPGASLTLTCTASGFSFNKNYWMCWVRQAPGKGLEWIGCIYNGDGNTYYASWVNGRFTISKTSSTTVTLQMTSLTVADTAIYFCARLLNMWGPGTLVTVSSGQPKAPSVFPLAPCCGDTPSSTVTLGCLVKGYLPEPVTVTWNSGTLTNGVRTFPSVRQSSGLYSLSSVVSVTSSSQPVTCNVAHPATNTKVDKTVAPSTCSKPMCPPPELPGGPSVFIFPPKPKDTLMISRTPEVTCVVVDVSQDDPEVQFTWYINNEQVRTARPPLREQQFNSTIRVVSTLPIAHQDWLRGKEFKCKVHNKALPAPIEKTISKARGQPLEPKVYTMGPPREELSSRSVSLTCMINGFYPSDISVEWEKNGKAEDNYKTTPTVLDSDGSYFLYSKLSVPTSEWQRGDVFTCSVMHEALHNHYTQKSISRSPGK
light: MDTRAPTQLLGLLLLWLPGARCADIVMTQTPASVEAAVGGTVTIKCQASESIGNALAWYQQKPGQPPKLLIYTAATLASGVPSRFSGSGSGTEFTLTISGVQCDDAATYYCQSYYFTSVSSYGNAFGGGTEVVVKGDPVAPTVLIFPPAADQVATGTVTIVCVANKYFPDVTVTWEVDGTTQTTGIENSKTPQNSADCTYNLSSTLTLTSTQYNSHKEYTCKVTQGTTSVVQSFNRGDC
B4: 24E4G6: rat anti-α11β1 mAb; VH SEQ ID NO: 147, VL SEQ ID NO: 148 (antibody, V domains shown)
VH: MELELSLIFIFSLLKDVQCEVQLVESGGSLVQPGGSLKLSCVASGYTFSNYWMDWVRQSPGKSLEWIGEINTDGRRTNYAPSIKDRFTISRDNAKSTLYLQMSNVKSDDTAIYYCTILRVYPHYFDYWGQGVMVTVSS
VL: MMSPAQFLFLLMLWIQEARGDVVMTQTPPSLSVAIGQSVSISCKSSQSLVYSDGETYLHWFLQSPGRSPKRLIYHVSNLGSGVPDRFSGTGSLTDFTLRISRVEAEDLGVYYCAQTTHFPPTFGAGTKLELK
B5: 10-F23: mouse anti-α11β1 mAb; VH SEQ ID NO: 125, VL SEQ ID NO: 126 (antibody, V domains shown)
VH: QVTLKESGPGILQPSQTLSLTCSFSGFSLSTFAMGVGWIRQPSGKGLEWLAHIWWDDDKYYNPALKSRLTISKDTSKNHVFLKIANVDTADTATYYCARMPLTFYFDYWGQGTTLTVSS
VL: DVLLTQTPLSLPVSLGDQASISCRSSQSIVHSNGHTYLEWYLQKPGQSPKLLIYKVSNRFSGVPDRFSGSGSGTDFTLKISRVEAEDLGVYYCFQGSHVPFTFGGGTKLEIK
B6: 3-G5: mouse anti-α11β1 mAb; VH SEQ ID NO: 135, VL SEQ ID NO: 136 (antibody, V domains shown)
VH: QVQLQQSGAELARPGASVKLSCKASGYTFTSYGISWVKQRTGQGLEWIGEIFPRSSNTYYNEKFKGKATLTADKSSSTVYMEFRSLTSEDSAVYFCAREGGLAWFAYWGQGTLVTVSA
VL: DVVMTQTPLTLSVTIGQPASISCKSSQSLLYTNGNTYLNWLLQRPGQSPKRLIYLVSKLDSGIPDRFSGSGSGTDFTLRISRVEAEDLGVYYCLQSTHFPFTFGSGTKLEIK

target: mouse α11β1 (Mus musculus, UniProt P61622); assay: ELISA binding to recombinant mouse α11β1; conditions: not given
Sequence (P61622 23-1141 limits assumed): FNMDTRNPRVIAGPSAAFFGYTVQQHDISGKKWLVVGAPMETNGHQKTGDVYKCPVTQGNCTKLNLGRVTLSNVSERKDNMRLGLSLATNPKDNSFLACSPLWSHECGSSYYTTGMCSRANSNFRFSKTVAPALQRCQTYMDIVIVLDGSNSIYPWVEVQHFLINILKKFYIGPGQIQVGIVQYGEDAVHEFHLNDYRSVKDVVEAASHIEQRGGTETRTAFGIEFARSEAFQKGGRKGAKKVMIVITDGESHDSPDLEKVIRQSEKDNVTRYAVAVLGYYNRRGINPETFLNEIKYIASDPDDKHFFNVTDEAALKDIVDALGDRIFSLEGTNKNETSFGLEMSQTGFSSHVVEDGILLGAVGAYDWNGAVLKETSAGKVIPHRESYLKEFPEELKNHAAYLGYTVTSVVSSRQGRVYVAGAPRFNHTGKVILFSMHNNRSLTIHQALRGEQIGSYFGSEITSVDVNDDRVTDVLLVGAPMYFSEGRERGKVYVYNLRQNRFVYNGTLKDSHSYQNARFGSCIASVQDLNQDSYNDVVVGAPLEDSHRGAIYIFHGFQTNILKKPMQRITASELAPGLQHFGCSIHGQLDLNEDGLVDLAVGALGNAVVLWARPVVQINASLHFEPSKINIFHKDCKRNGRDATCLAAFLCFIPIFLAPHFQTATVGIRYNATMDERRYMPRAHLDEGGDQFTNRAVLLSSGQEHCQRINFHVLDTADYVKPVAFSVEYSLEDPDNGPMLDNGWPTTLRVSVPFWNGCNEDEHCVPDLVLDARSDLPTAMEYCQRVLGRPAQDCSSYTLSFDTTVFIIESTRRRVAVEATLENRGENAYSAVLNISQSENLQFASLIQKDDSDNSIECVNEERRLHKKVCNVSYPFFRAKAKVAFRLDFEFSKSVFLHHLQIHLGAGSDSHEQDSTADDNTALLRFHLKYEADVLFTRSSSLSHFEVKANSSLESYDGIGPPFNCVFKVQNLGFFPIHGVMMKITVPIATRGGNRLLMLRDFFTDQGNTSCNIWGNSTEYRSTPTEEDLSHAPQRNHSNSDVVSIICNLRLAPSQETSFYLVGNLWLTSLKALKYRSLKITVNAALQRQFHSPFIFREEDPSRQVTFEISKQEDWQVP
Sequence (P09055 21-728 partner limits assumed): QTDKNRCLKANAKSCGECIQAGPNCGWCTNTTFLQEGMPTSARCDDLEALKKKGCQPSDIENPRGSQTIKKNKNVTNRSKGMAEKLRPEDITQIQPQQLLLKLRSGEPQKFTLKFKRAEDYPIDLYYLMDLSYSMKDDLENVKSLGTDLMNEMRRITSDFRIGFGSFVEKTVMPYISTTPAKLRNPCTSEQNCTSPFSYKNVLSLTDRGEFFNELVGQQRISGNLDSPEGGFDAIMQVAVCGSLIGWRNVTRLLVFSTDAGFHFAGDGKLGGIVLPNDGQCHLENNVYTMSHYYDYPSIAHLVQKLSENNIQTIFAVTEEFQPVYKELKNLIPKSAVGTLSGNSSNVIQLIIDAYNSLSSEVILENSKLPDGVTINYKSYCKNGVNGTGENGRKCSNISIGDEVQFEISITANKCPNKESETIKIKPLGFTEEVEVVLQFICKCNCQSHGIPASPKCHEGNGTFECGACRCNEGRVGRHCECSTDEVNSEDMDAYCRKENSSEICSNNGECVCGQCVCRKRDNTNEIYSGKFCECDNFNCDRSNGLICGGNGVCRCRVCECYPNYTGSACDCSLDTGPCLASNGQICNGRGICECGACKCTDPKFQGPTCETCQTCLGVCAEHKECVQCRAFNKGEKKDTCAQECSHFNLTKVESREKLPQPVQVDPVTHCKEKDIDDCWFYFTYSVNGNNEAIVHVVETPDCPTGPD
Procedure: (§1) 0.25 μg/mL of target antigen (recombinant human or mouse α11β1) was plated in a 96-well plate over night at 4° C. Plates were washed (PBS with 0.1% Tween-20), blocked (PBS with 2% BSA and 0.05% Tween-20) for 1 hour at room temperature and incubated with a range of antibody concentrations for 1 hour at room temperature. Subsequently, plates were washed and incubated with biotinylated anti-rabbit/mouse/human IgG in a 1:1000 dilution buffer and incubated for 1 hour at room temperature. After washing the plates, Streptavidin HRP was added at 1:200 in dilution buffer and incubated for 1 hour at room temperature. Ultra TMB ELISA substrate solution was added and the plates incubated for 5 minutes on a plate shaker. The reaction was stopped by adding stop solution to each well and plates were read at 450 nm.

binding to mouse α11β1	Molecule
does not bind mouse α11β1	B1

same assay, conditions: binding Yes/No

Murine α11β1 ELISA	Molecule
Yes	B2
Yes	B3
No/Low	B4
Yes/Low	B5
No	B1
Yes/Low	B6

target: human α11β1 (Homo sapiens, UniProt Q9UKX5); assay: ELISA binding to recombinant human α11β1; conditions: binding Yes/No
Sequence (P05556 21-728 partner limits assumed, one chain of several): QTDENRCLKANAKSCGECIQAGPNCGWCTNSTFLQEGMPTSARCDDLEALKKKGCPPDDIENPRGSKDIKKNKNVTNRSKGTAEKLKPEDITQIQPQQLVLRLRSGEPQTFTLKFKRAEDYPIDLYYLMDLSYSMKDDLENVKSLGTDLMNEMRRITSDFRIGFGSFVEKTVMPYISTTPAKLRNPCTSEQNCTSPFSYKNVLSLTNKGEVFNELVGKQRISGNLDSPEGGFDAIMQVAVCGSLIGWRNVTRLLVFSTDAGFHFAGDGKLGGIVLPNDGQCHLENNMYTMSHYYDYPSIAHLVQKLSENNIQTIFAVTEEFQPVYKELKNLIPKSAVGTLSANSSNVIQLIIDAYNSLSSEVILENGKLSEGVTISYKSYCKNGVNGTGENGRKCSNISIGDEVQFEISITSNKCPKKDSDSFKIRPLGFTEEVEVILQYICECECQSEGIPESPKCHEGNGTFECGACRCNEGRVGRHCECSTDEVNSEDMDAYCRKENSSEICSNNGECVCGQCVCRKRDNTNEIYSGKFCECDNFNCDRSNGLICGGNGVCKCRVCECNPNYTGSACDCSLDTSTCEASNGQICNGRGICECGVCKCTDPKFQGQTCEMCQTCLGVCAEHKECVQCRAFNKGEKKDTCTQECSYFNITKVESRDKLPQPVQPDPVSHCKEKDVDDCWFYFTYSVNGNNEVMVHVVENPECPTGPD
Procedure: as §1

Human α11β1 ELISA	Molecule
Yes	B2
Yes	B3
Yes	B4
Yes	B5
Yes	B1
Yes	B6

system: α1β1, α2β1 and/or α10β1; assay: Counter-screen for cross-reactivity to other collagen receptors; type: binding, human; conditions: not given
Procedure: Wistar rats were immunized with recombinant human α11β1 protein. An enzyme-linked immunosorbent assay (ELISA) was used to test an immune response against target human and mouse proteins. Subsequently, cell fusion (by electro fusion) was performed with animals that produced a good immune response. All fused cells were plated in a 96-well plate and supernatants were screened by ELISA against soluble human and mouse α11β1. Positive clones were counter-screened against human α1β1, α2β1 and α10β1. […] Purified antibodies were then generated from the selected clones and heavy chain and light chain variable domain sequences were obtained from each purified antibody.
10 mice from 5 different strains were immunized with an appropriate mixture of human α11β1, mouse α11β1 and tolerance breaking protein. Plasma titers were evaluated by ELISA against a mixture of human and mouse α11β1. Popliteal, inguinal, and iliac lymph nodes were collected. ELISA-positive anti-human/mouse α11β1 hybridomas were expanded and subjected to a secondary screen against human and mouse α11β1, control HIS protein, and a counter-screen was performed against human […], α2β1 and α10β1. Supernatant IgG concentration was sufficient for functional screening. Selected hybridomas satisfying all the criteria were cloned and clonal hybridomas were confirmed by ELISA against human and mouse α11β1 and subsequently scaled-up and IgGs were purified. Heavy and light chain variable regions of selected hybridomas were then sequenced.
α11β1 belongs to a family of collagen receptors and has a relatively high homology to them. Therefore, the novel antibodies of this invention were counter-screened against α1β1, α2β1 and/or α10β1. Table 2 includes results of cross-reactivity to the other receptors.

Molecule	cross-reaction with other collagen receptors
B2	does cross-react with other collagen receptors (α1β1, a2β1 and a10β1)

same assay, conditions: cross-reactivity to α1β1, α2β1, α10β1

Off Target	Molecule
Yes (all)	B2
No	B3
No	B4
No	B5
No	B1
No	B6

target: T1, α11β1 expressed on the surface of CHO-K1 cells; assay: FACS antibody binding to CHO-K1 cells expressing human α11; conditions: binding Yes/No
Procedure: 200,000 cells (wild-type CHO-K1 cells or CHO-K1 cells expressing human α11) were incubated with each antibody at desired concentrations in FACS buffer for 30 min at 4° C. Then, the cells were washed with FACS buffer and incubated with secondary antibody at 1:100 dilution for 30 minutes at 4° C. Cells were then washed and fixed with 1% PFA in PBS for 20 minutes at room temperature; washed again and read on a cytometer in FACS buffer.
Since integrins are large, transmembrane receptors that exist in different conformational shapes, experiments were performed to confirm that the novel antibodies also bound cell-expressed α11β1. A CHO-K1 cell line that endogenously expressed high levels of the β1 subunit was engineered to stably express human α11 (CHO-K1 hu α11).
Binding EC50 was estimated using data from Fluorescence-activated cell sorting (FACS) performed with CHO-K1 hu α11β1 cells.

CHO-K1 FACS	Molecule
Yes	B2
Yes	B3
Yes	B4
Yes	B5
Yes	B1
No	B6
